Article PMC11040147
Read-outs that look alike come from different tables or passages of the source.

What was measured:
Test in all cases: EMSA
[1] = target: T1, SF3B4 (human? (HeLa cDNA), UniProt Q15427 1-424)
[2] = target: T1, SF3B4; remark: listed apart in the source
[3] = target: T1, SF3B4; remark: listed apart in the source

T1 sequence (Q15427 whole entry): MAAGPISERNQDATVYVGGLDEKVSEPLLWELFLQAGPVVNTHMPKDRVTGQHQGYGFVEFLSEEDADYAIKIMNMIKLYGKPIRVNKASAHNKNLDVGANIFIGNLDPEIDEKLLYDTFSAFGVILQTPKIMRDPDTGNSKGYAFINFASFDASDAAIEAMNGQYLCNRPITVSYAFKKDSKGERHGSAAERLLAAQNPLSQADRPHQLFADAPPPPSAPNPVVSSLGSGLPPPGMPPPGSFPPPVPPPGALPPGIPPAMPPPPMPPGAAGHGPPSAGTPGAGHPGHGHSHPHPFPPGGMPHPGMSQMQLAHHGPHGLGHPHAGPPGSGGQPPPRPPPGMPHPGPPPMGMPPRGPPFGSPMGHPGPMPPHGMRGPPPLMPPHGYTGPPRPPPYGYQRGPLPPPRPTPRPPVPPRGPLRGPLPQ

GGTTAGGGTTAGGGTTAGGGTTAGGGTTAG (structured_DNA) [hTelo]: binds [1].

AGAGUGAAGUCUGAAGCGCUGAG (ssRNA) [PPP6R2-mut]: no binding [2].

GGGAGGUGGGAGCCGAGGGUGGG (structured_RNA) [G4-INPPL1]: binds [3].
